Reference: US20240034813A1 (Janssen / Centocor, published 2024)

Key:
[1] = target: T1, recombinant cMet/HGFR with c-terminal His-tag, Cy5-labeled (UniProt P08581 25-932, limits assumed, Cy5 label (reacted with Cy5 Mono NHS Ester; sites not stated)); assay: competitive TR-FRET (Eu-amivantamab/Cy5-c-MET), EC50 ratio vs Reference Material; Ex. 3 acetate formulation, 6 months at 25 C then 5 freeze/thaw cycles
T1 construct: Commercial protein; also called Cy5-c-MET; Cy5-labeled c-MET antigen; not shown: C-terminal His-tag
From the text: (§1) In this procedure, varying concentrations of unlabeled bispecific EGFR-cMet antibody sample compete with donor fluorophore (Europium (Eu) chelate) labeled bispecific EGFR-cMet antibody for binding to an acceptor fluorophore (Cy5)-labeled c-MET antigen. Excitation of the donor fluorophore results in a transfer of energy to the bound acceptor fluorophore (FRET process). The resultant FRET is detected by emission of light at 665 nm using a microplate reader capable of measuring time-resolved fluorescence. Sample dose response curves are compared to the Reference Material (RM).
(§2) c-MET Binding Materials and Methods. Certified commercial cMet, a recombinant cMet/HGFR with c-terminal His-tag is reacted with certified commercial Cy5 Mono NHS Ester to produce Cy5-labeled c-MET. Validated bispecific EGFR-cMet antibody is reacted with certified commercial Europium (Eu) chelate to produce Eu labeled bispecific EGFR-cMet antibody. […] Fluorescence is then measured by spectrophotometry at 665 nm, plotted against antibody concentration and analyzed by a four-parameter logistic model. The antibody concentration required to obtain half of the maximum fluorescence response (EC50) is determined for RM, assay control and samples. The potencies of assay control and samples are calculated based on the ratio of the sample (or control) and RM EC50 values and reported as a percentage activity relative to the RM.

[2] = target: T2, recombinant human EGFR/ErbB1/HER1 with C-terminal His tag, Cy5-labeled (human, UniProt P00533 25-645, Cy5 label (reacted with Cy5 Mono NHS Ester; sites not stated)); assay: competitive TR-FRET (Eu-amivantamab/Cy5-EGFR), EC50 ratio vs Reference Material; Ex. 12 drug product with rHuPH20, 0 months, 25 C table
T2 construct: Commercial protein; also called Cy5-EGFR; Cy5-labeled EGFR antigen; not shown: C-terminal His tag
From the text: as §1, with “EGFR” for “c-MET”, “RM.” for “Reference Material (RM).”
as §2, with “EGFR” for “c-MET”, “EGFR,” for “cMet,”, “human EGFR/ErbB1/HER1” for “cMet/HGFR”, “C-terminal His tag” for “c-terminal His-tag”, “EGFR.” for “c-MET.”, “Eu-labeled” for “Eu labeled”

[3] = target: T2, recombinant human EGFR/ErbB1/HER1 with …; assay: competitive TR-FRET (Eu-amivantamab/Cy5-EGFR), EC50 ratio vs Reference Material; Ex. 11 drug product, 3 months at 40 C
From the text: as §1, with “EGFR” for “c-MET”, “RM.” for “Reference Material (RM).”
as §2, with “EGFR” for “c-MET”, “EGFR,” for “cMet,”, “human EGFR/ErbB1/HER1” for “cMet/HGFR”, “C-terminal His tag” for “c-terminal His-tag”, “EGFR.” for “c-MET.”, “Eu-labeled” for “Eu labeled”

[4] = target: T1, recombinant cMet/HGFR with c-terminal …; assay: competitive TR-FRET (Eu-amivantamab/Cy5-c-MET), EC50 ratio vs Reference Material; Ex. 2 Formulation 1 (10 mM histidine), T0, 5 C table
From the text: as §1, §2

[5] = target: T1, recombinant cMet/HGFR with c-terminal …; assay: competitive TR-FRET (Eu-amivantamab/Cy5-c-MET), EC50 ratio vs Reference Material; Ex. 2 Formulation 3 (acetate), 1 month at 40 C
From the text: as §1, §2

[6] = target: T2, recombinant human EGFR/ErbB1/HER1 with …; assay: competitive TR-FRET (Eu-amivantamab/Cy5-EGFR), EC50 ratio vs Reference Material; Ex. 2 Formulation 1 (10 mM histidine), 1 month at 40 C
From the text: as §1, with “EGFR” for “c-MET”, “RM.” for “Reference Material (RM).”
as §2, with “EGFR” for “c-MET”, “EGFR,” for “cMet,”, “human EGFR/ErbB1/HER1” for “cMet/HGFR”, “C-terminal His tag” for “c-terminal His-tag”, “EGFR.” for “c-MET.”, “Eu-labeled” for “Eu labeled”

[7] = target: T1, recombinant cMet/HGFR with c-terminal …; assay: competitive TR-FRET (Eu-amivantamab/Cy5-c-MET), EC50 ratio vs Reference Material; Ex. 11 drug product, 6 months at 5 C
From the text: as §1, §2

[8] = target: T1, recombinant cMet/HGFR with c-terminal …; assay: competitive TR-FRET (Eu-amivantamab/Cy5-c-MET), EC50 ratio vs Reference Material; Ex. 2 Formulation 2 (50 mM histidine), T0, 40 C table
From the text: as §1, §2

B1: amivantamab (bispecific antibody, human IgG1, kappa)
heavy 1: not shown
light 1: not shown
heavy 2: not shown
light 2: DIQMTQSPSSVSASVGDRVTITCRASQGISNWLAWFQHKPGKAPKLLIYAASSLLSGVPSRFSGSGSGTDFTLTISSLQPEDFATYYCQQANSFPITFGQGTRLEIKRTVAAPSVFIFPPSDEQLKSGTASVVCLLNNFYPREAKVQWKVDNALQSGNSQESVTEQDSKDSTYSLSSTLTLSKADYEKHKVYACEVTHQGLSSPVTKSFNRGEC
notes: The samples tested were high concentration (160 mg/mL) formulations, fresh or stored or stressed; also called JNJ-61186372; bispecific EGFR-cMet antibody
[1]
  cMET Binding % activity relative to RM: 84%
[2]
  EGFR Binding activity relative to Reference Material (%): 92%
[3]
  EGFR Binding activity relative to Reference Material (%): 8%
[4]
  cMET Binding % activity relative to RM: 87%
[5]
  cMET Binding % activity relative to RM: 100%
[6]
  EGFR Binding % activity relative to RM: 69%
[7]
  cMET Binding activity relative to Reference Material (%): 86%
[8]
  cMET Binding % activity relative to RM: 102%
